Here are results for 3 molecules from US20040141978A1 (PHARMACIA AND UPJOHN, published 2004).

For assay [1], the target named is Angiostatin + Binding Domain (UniProt P00747). Put plainly: cell-based or functional assay.
The next assay concerns the target p53 + Binding Domain. Put plainly: cell-based or functional assay.
The target in a further assay is T1, ABP-1 (human, UniProt Q4VCS5 410-1084).
T1 construct: also called angiostatin receptor
T1 sequence: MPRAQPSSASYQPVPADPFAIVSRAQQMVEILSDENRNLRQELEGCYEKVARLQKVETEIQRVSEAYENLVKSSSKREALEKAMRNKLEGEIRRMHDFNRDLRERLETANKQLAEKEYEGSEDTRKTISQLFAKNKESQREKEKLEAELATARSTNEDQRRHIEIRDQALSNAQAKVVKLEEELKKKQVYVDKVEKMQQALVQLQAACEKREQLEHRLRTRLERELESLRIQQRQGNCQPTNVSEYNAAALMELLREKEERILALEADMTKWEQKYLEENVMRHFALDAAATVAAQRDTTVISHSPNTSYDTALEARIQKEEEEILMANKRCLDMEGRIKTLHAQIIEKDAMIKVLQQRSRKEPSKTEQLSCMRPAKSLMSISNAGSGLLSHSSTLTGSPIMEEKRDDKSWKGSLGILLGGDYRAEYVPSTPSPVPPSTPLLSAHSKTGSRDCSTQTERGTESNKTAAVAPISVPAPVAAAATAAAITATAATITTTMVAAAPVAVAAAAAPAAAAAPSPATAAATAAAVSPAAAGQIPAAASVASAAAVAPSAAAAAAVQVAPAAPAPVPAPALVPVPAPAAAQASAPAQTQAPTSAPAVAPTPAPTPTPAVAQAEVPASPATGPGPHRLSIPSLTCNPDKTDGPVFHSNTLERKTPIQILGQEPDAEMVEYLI
As to the kind of experiment: fluorescence microscopy, FITC-labelled angiostatin (10 ug/ml) on live HeLa cells transfected with ABP-1.

Angiostatin + Binding Domain, sequence (P00747 whole entry, the tested form may be a part): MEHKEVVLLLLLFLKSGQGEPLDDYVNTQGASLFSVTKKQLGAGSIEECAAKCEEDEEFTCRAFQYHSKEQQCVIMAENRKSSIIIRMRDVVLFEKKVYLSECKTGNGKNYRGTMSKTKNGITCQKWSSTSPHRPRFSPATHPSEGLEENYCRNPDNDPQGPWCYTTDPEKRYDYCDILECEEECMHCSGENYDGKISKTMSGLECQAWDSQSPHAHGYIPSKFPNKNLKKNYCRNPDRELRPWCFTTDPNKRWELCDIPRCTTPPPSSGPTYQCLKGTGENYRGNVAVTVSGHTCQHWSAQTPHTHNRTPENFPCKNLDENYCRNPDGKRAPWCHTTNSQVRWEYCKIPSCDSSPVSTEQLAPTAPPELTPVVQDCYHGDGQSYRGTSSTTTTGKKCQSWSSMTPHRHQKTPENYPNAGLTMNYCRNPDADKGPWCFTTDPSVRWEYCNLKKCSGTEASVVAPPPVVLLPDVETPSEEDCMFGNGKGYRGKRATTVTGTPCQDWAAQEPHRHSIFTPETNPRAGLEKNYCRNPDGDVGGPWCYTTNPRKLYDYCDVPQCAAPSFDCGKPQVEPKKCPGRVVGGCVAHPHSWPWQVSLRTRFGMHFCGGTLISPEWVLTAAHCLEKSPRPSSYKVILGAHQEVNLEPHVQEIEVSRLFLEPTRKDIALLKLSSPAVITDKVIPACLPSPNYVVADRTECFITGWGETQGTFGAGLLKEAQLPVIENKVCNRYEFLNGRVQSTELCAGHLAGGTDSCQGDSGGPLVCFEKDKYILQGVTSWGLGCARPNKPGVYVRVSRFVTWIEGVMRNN

As for “Activation Domain alone (from UniProt P04386 768-881)”, the β-Gal Activity in assay [1] was under 0.04 u.

For the molecule “SV40LT - Activation Domain (from UniProt P03070 84-708)”, the β-Gal Activity with p53 + Binding Domain was 90 u.

B1: human angiostatin (kringle domains 1-4 of plasminogen) (ligand, UniProt P00747 99-459, looked up)
chain: YLSECKTGNGKNYRGTMSKTKNGITCQKWSSTSPHRPRFSPATHPSEGLEENYCRNPDNDPQGPWCYTTDPEKRYDYCDILECEEECMHCSGENYDGKISKTMSGLECQAWDSQSPHAHGYIPSKFPNKNLKKNYCRNPDRELRPWCFTTDPNKRWELCDIPRCTTPPPSSGPTYQCLKGTGENYRGNVAVTVSGHTCQHWSAQTPHTHNRTPENFPCKNLDENYCRNPDGKRAPWCHTTNSQVRWEYCKIPSCDSSPVSTEQLAPTAPPELTPVVQDCYHGDGQSYRGTSSTTTTGKKCQSWSSMTPHRHQKTPENYPNAGLTMNYCRNPDADKGPWCFTTDPSVRWEYCNLKKCSGTEA
modifications: FITC-labelled in the cell binding assay of FIG. 9C
notes: domain: kringle domains 1-4; Used unlabelled in the pull-down and kinase assays, FITC-labelled on transfected HeLa cells; also called K1-K4; FITC-labelled angiostatin
For the molecule B1, the binding result in the assay with ABP-1 is listed as “binds”.
